Data as given in patent US20190085054A1 (Amgen, published 2019).
Positions count from the first letter of the chain named. In names and notes the source's numbering stands.

T1: human MMP2 (pro-MMP2 activated with APMA) (human, UniProt P08253 30-660)
T1 sequence (looked up): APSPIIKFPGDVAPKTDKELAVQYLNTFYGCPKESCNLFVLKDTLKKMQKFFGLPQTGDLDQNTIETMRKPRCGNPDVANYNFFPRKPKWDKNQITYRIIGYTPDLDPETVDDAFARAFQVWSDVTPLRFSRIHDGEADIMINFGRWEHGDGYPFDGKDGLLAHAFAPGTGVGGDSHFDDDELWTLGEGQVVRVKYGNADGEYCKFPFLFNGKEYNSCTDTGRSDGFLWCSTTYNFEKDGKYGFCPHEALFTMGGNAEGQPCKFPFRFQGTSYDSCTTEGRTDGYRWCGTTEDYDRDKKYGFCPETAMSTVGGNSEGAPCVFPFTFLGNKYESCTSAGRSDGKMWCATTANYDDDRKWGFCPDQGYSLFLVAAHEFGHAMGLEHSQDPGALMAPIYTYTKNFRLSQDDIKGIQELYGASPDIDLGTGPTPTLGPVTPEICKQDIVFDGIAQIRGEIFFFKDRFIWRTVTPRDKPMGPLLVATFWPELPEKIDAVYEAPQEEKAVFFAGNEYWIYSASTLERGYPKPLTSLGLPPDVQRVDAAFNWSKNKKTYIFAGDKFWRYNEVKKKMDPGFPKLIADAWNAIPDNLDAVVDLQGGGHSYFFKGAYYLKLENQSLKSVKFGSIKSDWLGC

B1: wild-type TIMP-3 (native human tissue inhibitor of metalloproteinase 3) (other)
chain: CTCSPSHPQDAFCNSDIVIRAKVVGKKLVKEGPFGTLVYTIKQMKMYRGFTKMPHVQYIHTEASESLCGLKLEVNKYQYLLTGRVYDGKMYTGLCNFVERWDQLTLSQRKGLNYRYHLGCNCKIKSCYYLPCFVTSKNECLWTDMLSNFGYPGYQSKHYACIRQKGGYCSWYRGWAPPDKSIINATDP
B2: TIMP-3 mutein K45S, F57N, T63N, K65T, K94N, E96T, R138T, G173T (other)
chain: B1 chain with K22S, F34N, T40N, K42T, K71N, E73T, R115T, G150T
B3: TIMP-3 mutein K45E, F57N, K94N, E96T, D110N, K112T, R138T (other)
chain: B1 chain with K22E, F34N, K71N, E73T, D87N, K89T, R115T
B4: TIMP-3 mutein K45E, K50N, V52T, K94N, E96T, D110N, K112T, R138T, G173T (other)
chain: B1 chain with K22E, K27N, V29T, K71N, E73T, D87N, K89T, R115T, G150T
B5: TIMP-3 mutein K50N, V52T, F57N, K94N, E96T, D110N, K112T, R138T (other)
chain: B1 chain with K27N, V29T, F34N, K71N, E73T, D87N, K89T, R115T
B6: TIMP-3 mutein K45E, F57N, Q126N, R138T, G173T (other)
chain: B1 chain with K22E, F34N, Q103N, R115T, G150T
B7: TIMP-3 mutein K50N, V52T, K94N, E96T, R138T, G173T (other)
chain: B1 chain with K27N, V29T, K71N, E73T, R115T, G150T
B8: TIMP-3 mutein K45N, V47T, F57N, V97N, K99T, R138T, G173T (other)
chain: B1 chain with K22N, V24T, F34N, V74N, K76T, R115T, G150T
B9: TIMP-3 mutein K45S, F57N, K94N, E96T, D110N, K112T, R138T, G173T (other)
chain: B1 chain with K22S, F34N, K71N, E73T, D87N, K89T, R115T, G150T
B10: TIMP-3 mutein K45E, K49E, F57N, K94N, E96T, D110N, K112T, G173T, R186N, K188T (other)
chain: B1 chain with K22E, K26E, F34N, K71N, E73T, D87N, K89T, G150T, R163N, K165T
B11: TIMP-3 mutein K45N, V47T, F57N, K94N, E96T, D110N, K112T, R186N, K188T (other)
chain: B1 chain with K22N, V24T, F34N, K71N, E73T, D87N, K89T, R163N, K165T
B12: TIMP-3 mutein K45S, F57N, H78N, Q80T, K94N, E96T, R138T, G173T (other)
chain: B1 chain with K22S, F34N, H55N, Q57T, K71N, E73T, R115T, G150T
B13: TIMP-3 mutein K45N, V47T, F57N, K94N, E96T, R138T, G173T (other)
chain: B1 chain with K22N, V24T, F34N, K71N, E73T, R115T, G150T
B14: TIMP-3 mutein K50N, V52T, F57N, K94N, E96T, R138T, G173T (other)
chain: B1 chain with K27N, V29T, F34N, K71N, E73T, R115T, G150T
B15: TIMP-3 mutein K45N, V47T, F57N, K94N, E96T, D110N, K112T, G173T, R186Q, K188Q (other)
chain: B1 chain with K22N, V24T, F34N, K71N, E73T, D87N, K89T, G150T, R163Q, K165Q
B16: TIMP-3 mutein K45N, V47T, F57N, K75N, P77T, K94N, E96T, R138T, G173T (other)
chain: B1 chain with K22N, V24T, F34N, K52N, P54T, K71N, E73T, R115T, G150T
B17: TIMP-3 mutein K45S, F57N, T63N, K65T, K94N, E96T, G173T (other)
chain: B1 chain with K22S, F34N, T40N, K42T, K71N, E73T, G150T

Legend:
Assay in all cases: cell-based or functional assay
[1] = target: T2, catalytic domain of human MMP9 (human, UniProt P14780 107-444, limits assumed)
[2] = target: active MMP13 (UniProt P45452 20-471, limits assumed)
[3] = target: T1, human MMP2 (pro-MMP2 activated with …)
[4] = target: T2, catalytic domain of human MMP9; remark: listed apart in the source
[5] = target: T1, human MMP2 (pro-MMP2 activated with …); remark: listed apart in the source

T2 sequence (P14780 107-444 limits assumed): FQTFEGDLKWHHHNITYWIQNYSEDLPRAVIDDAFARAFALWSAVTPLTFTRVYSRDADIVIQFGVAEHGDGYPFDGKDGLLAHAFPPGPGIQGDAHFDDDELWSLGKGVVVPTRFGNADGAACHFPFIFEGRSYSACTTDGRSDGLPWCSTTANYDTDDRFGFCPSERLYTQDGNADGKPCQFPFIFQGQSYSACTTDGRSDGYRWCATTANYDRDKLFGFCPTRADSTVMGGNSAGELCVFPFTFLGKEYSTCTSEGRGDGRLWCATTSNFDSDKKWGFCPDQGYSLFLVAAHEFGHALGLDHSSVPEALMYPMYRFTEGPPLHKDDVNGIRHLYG

Binder	MMP9 IC50 [1] [nM]	MMP13 IC50 [2] [nM]	MMP2 IC50 [3] [nM]	MMP9 Inhibition Shift [4] [fold]	MMP2 Inhibition Shift [5] [fold]
B1	1	0.9	0.6		
B2				16	8
B3				128	1
B4				1	2
B5				70	1
B6				8	4
B7				1	2
B8				8	6
B9				24	6
B10				5	1
B11				8	3
B12				18	5
B13				15	5
B14				91	2
B15				12	3
B16				25	7
B17				16	2
